US20200109390A1 (Chugai, published 2020)

B1: anti-FIX antibody A (antibody, human IgG1, kappa, V domains shown)
VH: QVQLQQSGAELAKPGASVKLSCKASGYTFTSSWMHWIKQRPGQGLEWLGYINPSSGYTKYNRKFRDKATLTADKSSSTAYMQLTSLTYEDSAVYYCARGGNGYYFDYWGQGTTLTVSS
VL: DIVMTQSHKFMSTSVGDRVSITCKASQDVGTAVAWYQQKPGQSPKLLIYWASTRHTGVPDRFTGSRYGTDFTLTISNVQSEDLADYLCQQYSNYITFGGGTKLELKR
notes: Obtained by immunizing an animal with human FIXa
B2: anti-FIX antibody B (antibody, human IgG1, kappa, V domains shown)
VH: QVQLVQSGSELKKPGASVKVSCKASGYTFTNYGMNWVRQAPGQGLKWMGWINTRNGKSTYVDDFKGRFVFSLDSSVSTAYLQISSLKADDTAVYYCTREGNMDGYFPFTYWGQGTLVTVSS
VL: QIVLTQSPSSLSASVGDRVTITCRASSSVNYMHWYQQKPGKAPKPWIYATSNLASGVPSRFSGSGSGTDYTFTISSLQPEDIATYYCQQWSINPRTFGQGTKVEIKR
notes: expressed transiently in FS293 cells

Target: T1, human blood coagulation factor IX (human, UniProt P00740 47-461, Gla (gamma-carboxyglutamate) residues in the GLA domain of native FIX); the twelve Glu of the GLA domain are at positions 53, 54, 61, 63, 66, 67, 72, 73, 76, 79, 82 and 86 of SEQ ID NO: 1 (positions …)
T1 construct: The FIX co-administered with the antibodies was Christmassin M I.V; antibody A was raised against human FIXa; also called FIX; human FIX
Assay: not described (statement in Example 4)
Protocol: PK tests using mice were performed by the following method. Through the tail vein or under the dorsal skin of mice (C57BL/6J mouse, Charles River Japan), FIX (Christmassin M I.V.) was administered at a dose of 0.6 mg/kg by itself or simultaneously with 8 mg/kg of an anti-FIX antibody A or anti-FIX antibody B, in a single dose. Blood was collected five minutes, two hours, four hours, seven hours, one day, two days, seven days, 14 days, 21 days, and 28 days after the administration. The collected blood was immediately subjected to separation by centrifugation at 4° C. and 15,000 rpm for 15 minutes to obtain the plasma. The separated plasma was stored in a freezer set to −20° C. or lower until performing the measurements.
The concentration of FIX in mouse plasma was determined by ELISA. […] After stopping the reaction by adding a reaction-stopping solution (AssayPro), the 450-nm absorbance of the reaction solution in each well was measured using a microplate reader. The concentrations of FIX in mouse plasma were calculated from the absorbances of the calibration curve using SOFTmax PRO analysis software (Molecular Devices).

T1 sequence (P00740 47-461): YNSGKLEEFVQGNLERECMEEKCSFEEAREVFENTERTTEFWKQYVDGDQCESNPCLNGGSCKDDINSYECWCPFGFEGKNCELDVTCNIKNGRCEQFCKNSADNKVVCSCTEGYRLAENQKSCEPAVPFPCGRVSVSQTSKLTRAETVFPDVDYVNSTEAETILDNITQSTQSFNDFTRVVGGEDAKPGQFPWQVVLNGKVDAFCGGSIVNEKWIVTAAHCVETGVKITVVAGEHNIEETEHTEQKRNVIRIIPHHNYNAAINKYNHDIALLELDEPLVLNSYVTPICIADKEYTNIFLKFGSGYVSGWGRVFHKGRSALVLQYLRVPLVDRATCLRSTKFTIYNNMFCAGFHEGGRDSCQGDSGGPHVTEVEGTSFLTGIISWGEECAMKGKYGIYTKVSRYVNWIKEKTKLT

| Binder | binding result |
| --- | --- |
| B1 | binds |
| B2 | binds |
